# According to PMC9877181:
# Test system: CCCC(=O)Oc1ccc([N+](=O)[O-])cc1
# Test: purified protein
# Conditions: 50 mM Tris-HCl pH 8, 10 μM enzyme, no α-CD
substance,measurement,value
EstG (Caulobacter vibrioides NA1000),Km,11.2 mM
